Assays:
[1] = molecular target: FITC-labeled bovine type-1 collagen (Chondrex, Cat# 4001), P02453
[2] = molecular target: T1, synthetic MMP1 substrate MCA-Lys-Pro-Leu-Gly-Leu-DPA-Ala-Arg-NH2 (R&D Systems, Cat# ES010)
T1 chain: KPLGLXAR

Sequence of FITC-labeled bovine type-1 collagen (Chondrex, Cat# 4001), P02453 (P02453 162-1217, chain 1 of 2): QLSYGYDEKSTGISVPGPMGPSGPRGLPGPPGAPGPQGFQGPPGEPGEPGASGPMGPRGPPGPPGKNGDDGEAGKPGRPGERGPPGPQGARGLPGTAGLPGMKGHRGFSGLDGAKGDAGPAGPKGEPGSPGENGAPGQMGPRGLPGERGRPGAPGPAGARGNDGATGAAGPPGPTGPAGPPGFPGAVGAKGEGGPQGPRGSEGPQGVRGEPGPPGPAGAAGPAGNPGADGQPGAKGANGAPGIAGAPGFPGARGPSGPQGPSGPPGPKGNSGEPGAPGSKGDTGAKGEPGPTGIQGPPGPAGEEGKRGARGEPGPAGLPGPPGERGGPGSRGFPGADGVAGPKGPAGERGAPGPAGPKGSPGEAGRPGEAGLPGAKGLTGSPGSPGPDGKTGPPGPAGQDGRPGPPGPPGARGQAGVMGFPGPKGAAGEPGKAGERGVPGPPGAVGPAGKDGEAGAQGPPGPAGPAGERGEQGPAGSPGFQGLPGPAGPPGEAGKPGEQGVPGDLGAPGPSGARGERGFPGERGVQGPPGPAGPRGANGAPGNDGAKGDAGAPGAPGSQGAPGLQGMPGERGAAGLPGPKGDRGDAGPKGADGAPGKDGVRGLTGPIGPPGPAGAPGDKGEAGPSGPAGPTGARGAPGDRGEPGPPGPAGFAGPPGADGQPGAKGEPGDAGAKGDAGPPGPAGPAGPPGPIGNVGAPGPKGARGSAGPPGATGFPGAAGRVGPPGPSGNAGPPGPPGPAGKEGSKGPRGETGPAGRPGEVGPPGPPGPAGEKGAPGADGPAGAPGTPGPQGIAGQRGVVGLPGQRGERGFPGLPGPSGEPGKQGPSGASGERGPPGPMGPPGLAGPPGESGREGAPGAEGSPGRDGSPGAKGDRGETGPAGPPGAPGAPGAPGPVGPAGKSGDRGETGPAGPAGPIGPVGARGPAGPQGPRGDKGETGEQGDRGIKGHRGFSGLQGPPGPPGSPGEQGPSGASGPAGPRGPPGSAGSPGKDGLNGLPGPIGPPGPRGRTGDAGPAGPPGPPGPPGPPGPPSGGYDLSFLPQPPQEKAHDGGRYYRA
Sequence of FITC-labeled bovine type-1 collagen (Chondrex, Cat# 4001), P02453 (P02453 other isoform, or with tags, fused parts or gaps, chain 2 of 2): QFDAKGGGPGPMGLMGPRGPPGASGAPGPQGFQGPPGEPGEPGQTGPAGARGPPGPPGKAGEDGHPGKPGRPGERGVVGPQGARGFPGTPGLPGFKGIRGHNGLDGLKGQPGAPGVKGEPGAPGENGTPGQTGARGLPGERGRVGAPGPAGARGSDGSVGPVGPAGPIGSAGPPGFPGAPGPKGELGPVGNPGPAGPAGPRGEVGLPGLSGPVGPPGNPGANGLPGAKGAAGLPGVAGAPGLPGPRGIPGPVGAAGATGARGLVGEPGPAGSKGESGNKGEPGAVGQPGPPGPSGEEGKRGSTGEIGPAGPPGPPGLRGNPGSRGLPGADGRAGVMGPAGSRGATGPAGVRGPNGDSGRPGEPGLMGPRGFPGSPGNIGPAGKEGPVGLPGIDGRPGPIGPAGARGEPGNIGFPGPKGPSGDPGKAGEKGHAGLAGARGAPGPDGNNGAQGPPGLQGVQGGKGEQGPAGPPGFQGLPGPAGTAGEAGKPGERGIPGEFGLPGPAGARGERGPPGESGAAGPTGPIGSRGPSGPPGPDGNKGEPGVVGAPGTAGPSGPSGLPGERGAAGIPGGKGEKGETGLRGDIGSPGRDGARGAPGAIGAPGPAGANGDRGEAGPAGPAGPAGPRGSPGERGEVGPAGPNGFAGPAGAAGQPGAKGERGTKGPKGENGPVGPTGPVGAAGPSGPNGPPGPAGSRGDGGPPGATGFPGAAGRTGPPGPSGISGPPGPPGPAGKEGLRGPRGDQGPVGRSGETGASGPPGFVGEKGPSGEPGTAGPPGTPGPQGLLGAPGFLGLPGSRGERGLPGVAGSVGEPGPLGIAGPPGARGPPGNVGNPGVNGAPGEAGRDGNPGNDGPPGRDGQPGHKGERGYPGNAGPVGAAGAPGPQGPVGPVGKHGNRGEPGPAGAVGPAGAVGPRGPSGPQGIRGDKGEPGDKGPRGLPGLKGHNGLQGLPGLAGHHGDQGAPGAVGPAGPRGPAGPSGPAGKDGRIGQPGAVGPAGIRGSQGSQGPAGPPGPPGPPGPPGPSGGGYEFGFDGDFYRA

B1: trypsin-activated MMP1 (43 kD active human matrix metalloproteinase-1) (protein)
chain: VLTEGNPRWEQTHLTYRIENYTPDLPRADVDHAIEKAFQLWSNVTPLTFTKVSEGQADIMISFVRGDHRDNSPFDGPGGNLAHAFQPGPGIGGDAHFDEDERWTNNFREYNLHRVAAHELGHSLGLSHSTDIGALMYPSYTFSGDVQLAQDDIDGIQAIYGRSQNPVQPIGPQTPKACDSKLTFDAITTIRGEVMFFKDRFYMRTNPFYPEVELNFISVFWPQLPNGLEAAYEFADRDEVRFFKGNKYWAVQGQNVLHGYPKDIYSSFGFPRTVKHIDAALSEENTGKTYFFVANKYWRYDEYKRSMDPGYPKMIAHDFPGIGHKVDAVFMKDGFFYFFHGTRQYKFDPKTKRILTLQKANSWFNCRKN
[1]
  collagen cleavage on SDS PAGE: active MMP1 cleaves type-1 collagen into ¾ and ¼ fragments
  kcat (weight-based collagen degradation assay): ~19 monomers per MMP1 per hour
  kcat/MMP1/hr using 1 mg/ml concentration (+MMP1 for 1 hr): 0.5 /MMP1/hr
  kcat/MMP1/hr using 1 mg/ml concentration (+MMP1 for 2 hr): 0.21 /MMP1/hr
  kcat/MMP1/hr using 1 mg/ml concentration (+MMP1 for 3 hr): 0.19 /MMP1/hr
  kcat/MMP1/hr using 1 mg/ml concentration (+MMP1 for 4 hr): 0.15 /MMP1/hr
  kcat/MMP1/hr using 1 mg/ml concentration (+MMP1 for 5 hr): 0.14 /MMP1/hr
  kcat/MMP1/hr using 1 mg/ml concentration (+MMP1 for 6 hr): 0.11 /MMP1/hr
  kcat/MMP1/hr using 1 mg/ml concentration (+MMP1 for 7 hr): 0.1 /MMP1/hr
  kcat/MMP1/hr using 1 mg/ml concentration (+MMP1 for 8 hr): 0.1 /MMP1/hr
  kcat/MMP1/hr using 1 mg/ml concentration (+MMP1 for 9 hr): 0.09 /MMP1/hr
  kcat/MMP1/hr using 1 mg/ml concentration (+MMP1 for 10 hr): 0.09 /MMP1/hr
  kcat/MMP1/hr using 114.2 mg/ml concentration (+MMP1 for 1 hr): 58 /MMP1/hr
  kcat/MMP1/hr using 114.2 mg/ml concentration (+MMP1 for 2 hr): 24 /MMP1/hr
  kcat/MMP1/hr using 114.2 mg/ml concentration (+MMP1 for 3 hr): 22 /MMP1/hr
  kcat/MMP1/hr using 114.2 mg/ml concentration (+MMP1 for 4 hr): 17 /MMP1/hr
  kcat/MMP1/hr using 114.2 mg/ml concentration (+MMP1 for 5 hr): 16 /MMP1/hr
  kcat/MMP1/hr using 114.2 mg/ml concentration (+MMP1 for 6 hr): 13 /MMP1/hr
  kcat/MMP1/hr using 114.2 mg/ml concentration (+MMP1 for 7 hr): 11 /MMP1/hr
  kcat/MMP1/hr using 114.2 mg/ml concentration (+MMP1 for 8 hr): 11 /MMP1/hr
  kcat/MMP1/hr using 114.2 mg/ml concentration (+MMP1 for 9 hr): 10 /MMP1/hr
  kcat/MMP1/hr using 114.2 mg/ml concentration (+MMP1 for 10 hr): 10 /MMP1/hr
[2]
  reaction rate k (RFU of degraded substrate by 0.05 µg MMP1): k=0.26±0.02 RFU/min
  specific activity (RFU): k/0.05=5.2 RFU/min/µg
  specific activity (fluorogenic peptide substrate, 37° C.): ~999 pmol/min/µg

B2: catalytically inactive mutant MMP1 (E219Q) (protein)
chain: VLTEGNPRWEQTHLTYRIENYTPDLPRADVDHAIEKAFQLWSNVTPLTFTKVSEGQADIMISFVRGDHRDNSPFDGPGGNLAHAFQPGPGIGGDAHFDEDERWTNNFREYNLHRVAAHQLGHSLGLSHSTDIGALMYPSYTFSGDVQLAQDDIDGIQAIYGRSQNPVQPIGPQTPKACDSKLTFDAITTIRGEVMFFKDRFYMRTNPFYPEVELNFISVFWPQLPNGLEAAYEFADRDEVRFFKGNKYWAVQGQNVLHGYPKDIYSSFGFPRTVKHIDAALSEENTGKTYFFVANKYWRYDEYKRSMDPGYPKMIAHDFPGIGHKVDAVFMKDGFFYFFHGTRQYKFDPKTKRILTLQKANSWFNCRKN
[1]
  collagen degradation on SDS PAGE: did not show degradation of type-1 collagen
